Data published in paper PMC9482650, “Quantitative fragmentomics allow affinity mapping of interactomes” (Nature Communications, 2022).
Each block holds one binder with its values, some of them ahead of it.

Columns and labels:
Test in all cases: holdup assay
Design in all cases: key: below the threshold = too weak to quantify, mostly under pKd 3.1 to 4
AHNAK1, Q09666 = biological target: AHNAK1, Q09666
APBA1_2, Q02410 = biological target: T1, APBA1_2, Q02410
T1 sequence (Q02410 742-832, limits assumed, looked up): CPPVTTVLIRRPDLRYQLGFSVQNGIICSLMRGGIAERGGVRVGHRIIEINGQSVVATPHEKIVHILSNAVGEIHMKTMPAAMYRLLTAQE

APBA2_1, Q99767 = biological target: T2, APBA2_1, Q99767
T2 sequence (Q99767 563-664, limits assumed, looked up): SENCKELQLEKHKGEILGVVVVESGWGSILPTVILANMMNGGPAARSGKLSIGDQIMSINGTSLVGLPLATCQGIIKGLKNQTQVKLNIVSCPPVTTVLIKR

APBA3_1, O96018 = biological target: T3, APBA3_1, O96018
T3 sequence (O96018 389-490, limits assumed, looked up): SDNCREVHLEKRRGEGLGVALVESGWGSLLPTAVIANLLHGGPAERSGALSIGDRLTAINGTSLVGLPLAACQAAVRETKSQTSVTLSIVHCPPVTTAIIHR

CARD11, Q9BXL7 = biological target: T4, CARD11, Q9BXL7
T4 sequence (Q9BXL7 662-765, limits assumed, looked up): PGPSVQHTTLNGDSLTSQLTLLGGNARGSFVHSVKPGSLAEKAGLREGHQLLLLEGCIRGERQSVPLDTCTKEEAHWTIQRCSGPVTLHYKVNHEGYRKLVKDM

CASK, O14936 = biological target: CASK, O14936
CASK, O14936, sequence (O14936 487-570): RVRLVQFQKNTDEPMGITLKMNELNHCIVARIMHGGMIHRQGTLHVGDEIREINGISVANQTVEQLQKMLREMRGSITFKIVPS

GORASP1, Q9BQQ3 = biological target: GORASP1, Q9BQQ3
GORASP1, Q9BQQ3, sequence (Q9BQQ3 1-208): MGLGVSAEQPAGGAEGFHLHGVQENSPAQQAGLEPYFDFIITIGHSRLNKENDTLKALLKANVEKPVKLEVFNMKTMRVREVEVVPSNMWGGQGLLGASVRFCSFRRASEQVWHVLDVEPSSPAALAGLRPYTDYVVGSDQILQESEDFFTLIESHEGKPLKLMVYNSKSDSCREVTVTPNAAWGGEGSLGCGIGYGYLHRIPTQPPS

GRASP, Q7Z6J2 = biological target: GRASP, Q7Z6J2
GRASP, Q7Z6J2, sequence (Q7Z6J2 96-193): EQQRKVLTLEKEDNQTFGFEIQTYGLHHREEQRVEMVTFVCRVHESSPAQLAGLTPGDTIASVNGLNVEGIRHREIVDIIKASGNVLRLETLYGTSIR

GRIP1_2, Q9Y3R0 = biological target: T5, GRIP1_2, Q9Y3R0
T5 sequence (Q9Y3R0 145-248, limits assumed, looked up): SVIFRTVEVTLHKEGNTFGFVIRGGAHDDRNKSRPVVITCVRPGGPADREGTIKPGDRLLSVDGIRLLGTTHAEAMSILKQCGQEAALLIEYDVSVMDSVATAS

GRIP1_4, Q9Y3R0 = biological target: T6, GRIP1_4, Q9Y3R0
T6 sequence (Q9Y3R0 467-571, limits assumed, looked up): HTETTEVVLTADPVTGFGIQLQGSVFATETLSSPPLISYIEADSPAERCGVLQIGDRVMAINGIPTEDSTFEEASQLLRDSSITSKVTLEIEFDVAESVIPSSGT

HTRA2, O43464 = biological target: HTRA2, O43464
HTRA2, O43464, sequence (O43464 355-458): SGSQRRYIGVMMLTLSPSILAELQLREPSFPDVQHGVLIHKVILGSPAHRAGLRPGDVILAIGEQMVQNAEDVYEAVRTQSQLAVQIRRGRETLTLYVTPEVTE

Inadl_3, Q8NI35 = biological target: Inadl_3, Q8NI35
Inadl_3, Q8NI35, sequence (Q8NI35 359-469): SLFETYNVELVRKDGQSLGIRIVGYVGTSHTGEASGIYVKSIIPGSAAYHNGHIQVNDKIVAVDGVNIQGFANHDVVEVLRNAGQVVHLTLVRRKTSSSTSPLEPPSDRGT

Inadl_5, Q8NI35 = biological target: Inadl_5, Q8NI35
Inadl_5, Q8NI35, sequence (Q8NI35 673-780): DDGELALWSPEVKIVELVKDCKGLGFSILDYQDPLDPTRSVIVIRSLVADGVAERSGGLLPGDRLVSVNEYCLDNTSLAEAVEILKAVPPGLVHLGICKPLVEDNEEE

LNX1_2, Q8TBB1 = biological target: LNX1_2, Q8TBB1
LNX1_2, Q8TBB1, sequence (Q8TBB1 371-470): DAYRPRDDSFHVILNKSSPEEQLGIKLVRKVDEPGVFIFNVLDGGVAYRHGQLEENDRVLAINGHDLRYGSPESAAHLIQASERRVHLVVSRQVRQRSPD

LNX2_2, Q8N448 = biological target: T7, LNX2_2, Q8N448
T7 sequence (Q8N448 334-432, limits assumed, looked up): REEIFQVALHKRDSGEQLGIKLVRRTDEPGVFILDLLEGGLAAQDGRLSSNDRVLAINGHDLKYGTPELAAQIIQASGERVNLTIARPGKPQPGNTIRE

MAGI2_5, Q86UL8 = biological target: MAGI2_5, Q86UL8
MAGI2_5, Q86UL8, sequence (Q86UL8 915-1017): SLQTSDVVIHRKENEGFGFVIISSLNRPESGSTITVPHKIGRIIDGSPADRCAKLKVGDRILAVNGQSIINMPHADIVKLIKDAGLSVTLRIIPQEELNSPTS

MAST1, Q9Y2H9 = biological target: MAST1, Q9Y2H9
MAST1, Q9Y2H9, sequence (Q9Y2H9 962-1065): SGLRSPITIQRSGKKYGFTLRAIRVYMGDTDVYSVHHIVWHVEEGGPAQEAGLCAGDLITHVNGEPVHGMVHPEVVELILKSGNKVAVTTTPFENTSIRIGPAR

MPDZ_12, O75970 = biological target: T8, MPDZ_12, O75970
T8 sequence (O75970 1857-1958, limits assumed, looked up): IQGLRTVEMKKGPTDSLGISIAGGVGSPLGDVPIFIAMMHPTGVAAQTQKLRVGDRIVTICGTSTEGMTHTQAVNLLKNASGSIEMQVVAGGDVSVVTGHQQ

MPP7, Q5T2T1 = biological target: T9, MPP7, Q5T2T1
T9 sequence (Q5T2T1 134-230, limits assumed, looked up): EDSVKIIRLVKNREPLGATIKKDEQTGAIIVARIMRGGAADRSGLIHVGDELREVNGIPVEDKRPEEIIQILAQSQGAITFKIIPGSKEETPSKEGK

NHERF3_3, Q5T2W1 = biological target: T10, NHERF3_3, Q5T2W1
T10 sequence (Q5T2W1 238-333, limits assumed, looked up): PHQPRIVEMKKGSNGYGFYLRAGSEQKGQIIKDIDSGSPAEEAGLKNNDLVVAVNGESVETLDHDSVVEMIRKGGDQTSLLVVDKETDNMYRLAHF

PDZD7_3, Q9H5P4 = biological target: T11, PDZD7_3, Q9H5P4
T11 sequence (Q9H5P4 857-944, limits assumed, looked up): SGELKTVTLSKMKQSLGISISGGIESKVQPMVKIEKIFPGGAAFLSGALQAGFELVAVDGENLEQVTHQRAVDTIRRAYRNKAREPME

PTPN13_1, Q12923 = biological target: T12, PTPN13_1, Q12923
T12 sequence (Q12923 1088-1188, limits assumed, looked up): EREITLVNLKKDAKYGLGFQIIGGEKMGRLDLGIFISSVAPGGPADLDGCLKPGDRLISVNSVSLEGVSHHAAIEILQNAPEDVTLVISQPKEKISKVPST

RADIL, Q96JH8 = biological target: T13, RADIL, Q96JH8
T13 sequence (Q96JH8 971-1071, limits assumed, looked up): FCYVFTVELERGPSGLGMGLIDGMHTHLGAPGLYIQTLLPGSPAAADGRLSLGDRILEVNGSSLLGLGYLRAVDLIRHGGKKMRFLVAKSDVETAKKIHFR

TJP1_2, Q07157 = biological target: TJP1_2, Q07157
TJP1_2, Q07157, sequence (Q07157 181-274): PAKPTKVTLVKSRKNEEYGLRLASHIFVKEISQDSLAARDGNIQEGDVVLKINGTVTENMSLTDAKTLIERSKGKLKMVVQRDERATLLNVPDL

[1] = plain residues with an end cap or a label only (N-terminal biotin on a linker: ttds)
[2] = plain residues with an end cap or a label only (N-terminal biotin on a linker: ado-ado)
[3] = plain residues with an end cap or a label only (N-terminal biotin on a linker: ahx)

AHNAK1, Q09666, sequence (Q09666 4-100): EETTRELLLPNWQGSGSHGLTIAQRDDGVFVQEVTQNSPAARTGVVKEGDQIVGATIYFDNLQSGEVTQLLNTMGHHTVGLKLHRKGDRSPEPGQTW

pKd (AHNAK1, Q09666; [1]): below the threshold
pKd (APBA1_2, Q02410; [1]): below the threshold
pKd (APBA2_1, Q99767; [1]): below the threshold
pKd (APBA3_1, O96018; [1]): below the threshold
pKd (CARD11, Q9BXL7; [1]): below the threshold
pKd (CASK, O14936; [1]): below the threshold
pKd (GORASP1, Q9BQQ3; [1]): below the threshold
pKd (GRASP, Q7Z6J2; [1]): 3.86
pKd (GRIP1_2, Q9Y3R0; [1]): below the threshold
pKd (GRIP1_4, Q9Y3R0; [1]): below the threshold
pKd (HTRA2, O43464; [1]): below the threshold
pKd (Inadl_3, Q8NI35; [1]): below the threshold
pKd (Inadl_5, Q8NI35; [1]): below the threshold
pKd (LNX1_2, Q8TBB1; [1]): below the threshold
pKd (LNX2_2, Q8N448; [1]): 3.65
pKd (MAGI2_5, Q86UL8; [1]): 3.74
pKd (MAST1, Q9Y2H9; [1]): 4.04
pKd (MPDZ_12, O75970; [1]): 3.66
pKd (MPP7, Q5T2T1; [1]): below the threshold
pKd (NHERF3_3, Q5T2W1; [1]): below the threshold
pKd (PDZD7_3, Q9H5P4; [1]): 3.59
pKd (PTPN13_1, Q12923; [1]): below the threshold
pKd (RADIL, Q96JH8; [1]): 3.76
pKd (TJP1_2, Q07157; [1]): below the threshold
Binder: KQVVPFSSSV [GDA, Q9Y2T3]

pKd (AHNAK1, Q09666; [2]): below the threshold
pKd (APBA1_2, Q02410; [2]): 4.03
pKd (APBA2_1, Q99767; [2]): below the threshold
pKd (APBA3_1, O96018; [2]): below the threshold
pKd (CARD11, Q9BXL7; [2]): below the threshold
pKd (CASK, O14936; [2]): below the threshold
pKd (GORASP1, Q9BQQ3; [2]): below the threshold
pKd (GRASP, Q7Z6J2; [2]): 3.57
pKd (GRIP1_2, Q9Y3R0; [2]): below the threshold
pKd (GRIP1_4, Q9Y3R0; [2]): below the threshold
pKd (HTRA2, O43464; [2]): below the threshold
pKd (Inadl_3, Q8NI35; [2]): 3.53
pKd (Inadl_5, Q8NI35; [2]): below the threshold
pKd (LNX1_2, Q8TBB1; [2]): below the threshold
pKd (LNX2_2, Q8N448; [2]): 3.73
pKd (MAGI2_5, Q86UL8; [2]): 4.82
pKd (MAST1, Q9Y2H9; [2]): 4.89
pKd (MPDZ_12, O75970; [2]): below the threshold
pKd (MPP7, Q5T2T1; [2]): below the threshold
pKd (NHERF3_3, Q5T2W1; [2]): below the threshold
pKd (PDZD7_3, Q9H5P4; [2]): 4.59
pKd (PTPN13_1, Q12923; [2]): below the threshold
pKd (RADIL, Q96JH8; [2]): below the threshold
pKd (TJP1_2, Q07157; [2]): below the threshold
Binder: IGHEDLETAV [DGKI, O75912]

pKd (AHNAK1, Q09666; [3]): below the threshold
pKd (APBA1_2, Q02410; [3]): below the threshold
pKd (APBA2_1, Q99767; [3]): below the threshold
pKd (APBA3_1, O96018; [3]): below the threshold
pKd (CARD11, Q9BXL7; [3]): below the threshold
pKd (CASK, O14936; [3]): below the threshold
pKd (GORASP1, Q9BQQ3; [3]): below the threshold
pKd (GRASP, Q7Z6J2; [3]): 4
pKd (GRIP1_2, Q9Y3R0; [3]): below the threshold
pKd (GRIP1_4, Q9Y3R0; [3]): below the threshold
pKd (HTRA2, O43464; [3]): below the threshold
pKd (Inadl_3, Q8NI35; [3]): 3.7
pKd (Inadl_5, Q8NI35; [3]): below the threshold
pKd (LNX1_2, Q8TBB1; [3]): below the threshold
pKd (LNX2_2, Q8N448; [3]): 3.96
pKd (MAGI2_5, Q86UL8; [3]): 4.02
pKd (MAST1, Q9Y2H9; [3]): 3.67
pKd (MPDZ_12, O75970; [3]): below the threshold
pKd (MPP7, Q5T2T1; [3]): below the threshold
pKd (NHERF3_3, Q5T2W1; [3]): below the threshold
pKd (PDZD7_3, Q9H5P4; [3]): 3.87
pKd (PTPN13_1, Q12923; [3]): below the threshold
pKd (RADIL, Q96JH8; [3]): below the threshold
pKd (TJP1_2, Q07157; [3]): below the threshold
Binder: HSATSVHTSV [MTMR1, Q13613]
